Data: patent US20190183976A1

Target: T1, CXCR4-VC (human), P61073
T1 chain: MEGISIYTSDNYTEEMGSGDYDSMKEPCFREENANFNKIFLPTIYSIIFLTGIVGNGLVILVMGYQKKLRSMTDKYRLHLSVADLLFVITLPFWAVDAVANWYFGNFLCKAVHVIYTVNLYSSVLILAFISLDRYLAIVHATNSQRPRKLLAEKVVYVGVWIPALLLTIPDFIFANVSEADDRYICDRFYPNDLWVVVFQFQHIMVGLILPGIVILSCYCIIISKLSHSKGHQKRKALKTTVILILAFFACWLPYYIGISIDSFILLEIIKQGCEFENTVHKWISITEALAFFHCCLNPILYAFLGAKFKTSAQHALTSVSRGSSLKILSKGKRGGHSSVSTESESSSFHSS
Assay: BiFC, U-2 OS cells; score=(positive cells/total cells)x100
Details: remark: other sources report otherwise

BiFC score: 9.9
B1: CXCR4-VN, P61073 1-352 (receptor, human, UniProt P61073 1-352, looked up, not shown: small tags and cut ends)
chain: MEGISIYTSDNYTEEMGSGDYDSMKEPCFREENANFNKIFLPTIYSIIFLTGIVGNGLVILVMGYQKKLRSMTDKYRLHLSVADLLFVITLPFWAVDAVANWYFGNFLCKAVHVIYTVNLYSSVLILAFISLDRYLAIVHATNSQRPRKLLAEKVVYVGVWIPALLLTIPDFIFANVSEADDRYICDRFYPNDLWVVVFQFQHIMVGLILPGIVILSCYCIIISKLSHSKGHQKRKALKTTVILILAFFACWLPYYIGISIDSFILLEIIKQGCEFENTVHKWISITEALAFFHCCLNPILYAFLGAKFKTSAQHALTSVSRGSSLKILSKGKRGGHSSVSTESESSSFHSS
